Experimental data taken from the nanobody polyreactivity screen of Harvey et al. (2022).

Experiment: yeast display, Sf9 membrane polyspecificity reagent, FACS + sequencing; frameworks hold sequencing errors
How it was run: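 Galactose-induced (36–48 hours) yeast carrying a synthetic nanobody display library were exposed to 10% biotinylated, detergent-solubilized Sf9 membrane reagent at 4 °C for 1 hour. FACS followed streptavidin microbead enrichment, using low and high (top ~1%) gates for expression (anti-HA) and reagent binding (streptavidin). Colony PCR, MiSeq 2 × 250 sequencing and CDR-length filtering followed. Labels for polyreactivity reflect the gate of origin.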

Row | Sequence | polyreactivity (PSR sort gate)
1 | QVQLVESGGGLVQAGGSLRLSCAASGNTFRRNVMGWYRQAPGKERELVAAINRGGSTTDADSVKGRFTISRDNAKNTVYLQMNSLKPEDTAVYYCNARTLFKWRHGHYYAYDYWGQGTQVTVSS | high polyreactivity
2 | QVQLVESGGGLVQAGGSLRLSCAASGNTFRVYTMGWYRQAPGKERELVAAINSSGRTNYADSVKGRFTISRDNAKNTVYLLMNCLKPEDTAVYYCAADYYQWSTFLGVYEYAYWGQGTQVTVSS | low polyreactivity
3 | QVQLVESGGGLVQAGGSLRLSCAASGNTFRWNAMGWYRQAPGKERELVAGISIDDGSNYADSVKGRFTISRDNAKKTVYLQMNSLTPEDTAVYDCNRDWALYVFGRHYHAYYSWGQGTHVTVSS | low polyreactivity
4 | QVQLVESGGGLVQAGGSLRLSCAASGNTFRYYAMGWYRQAPGKERELVAVITTRGGSTNYADSVKGRFTISRDNAKNTVYLQMNSLKPEDTAVYYCAARPGIRSYPPGYGYWGQGTQVTVSS | low polyreactivity
5 | QVQLVESGGGLVQAGGSLRLSCAASGNTFSDYAMGWYRQAPGKERELVAAISSSGVRTYYADSVKGRYTISRDNAKNTVYLQINSLKPEDTAVSYCNAVLNQLSYIYPAVGFWGQGTLVTVSS | high polyreactivity
6 | QVQLVESGGGLVQAGGSLRLSCAASGNTFSRYAMGWYRQAPGKERELVAAISYSTGSTRYADSVKGRFTISRDNAKNTVYLQMNSLKPEDTAVYYCAARAKSRGYWGQGTQVTVSS | high polyreactivity
7 | QVQLVESGGGLVQAGGSLRLSCAASGNTFSSNAMGWYRQAPGKERELVAAISWSGGRTYYADSVKGRFTISRDNAKNTVYLQMNSLKPEDTAVYYCAAALGRRRTGYDYWGQGTQVTVSS | high polyreactivity
8 | QVQLVESGGGLVQAGGSLRLSCAASGNTFTRNTMGWYRPAPGKERELVASISLSGASTYYADSVKGRFTISRDNAKNTVYLQMNSLKPEDTAVYYCAAEYFNYKTDVDYWGQGTQVTVSS | high polyreactivity
9 | QVQLVESGGGLVQAGGSLRLSCAASGNTFTWYTMGWYRQAPGKERELVAAISSSGGNTYYADSVKGRFTISRDNAKNTVYLQMNSLKPEDTAVYYCAADLSSAYGHDYRGQGTQVTVSS | low polyreactivity
10 | QVQLVESGGGLVQAGGSLRLSCAASGNTFTWYTMGWYRQAPGKERELVAVITSDGSTYYADSVKGRFTISRDNAKNTVYLQMNSLKPEDTAVYYCNKATVTGQESYAYDYWGQGTQVTVSS | low polyreactivity
11 | QVQLVESGGGLVQAGGSLRLSCAASGNTFTWYTMGWYRQAPGKERELVAVMTSDGSTYYADSVKGRFTISRDNAKNTVSFQMNSLKPEDTAVYYCNRGVFDTFYYYPQVGFGYWGQGTQVTVSS | low polyreactivity
12 | QVQLVESGGGLVQAGGSLRLSCAASGNTFTYYAMGWYRQAPGKERELVAAISSGGRTYYADSVKGRFTISRDNAKNTVYLQMNSLKPEDTAVYYCAARIKYGYPGPRYYYWGQGTQVTVSS | high polyreactivity
13 | QVQLVESGGGLVQAGGSLRLSCAASGNTFVTYAMGWYRQAPGKVRELVATISSSGGSTYYADSVKGRFTISRDNAKNTVYLQMNSLKPEDTAVYYCAKQAWAYALYTNFYSGDYGYWGQGTQVTVSS | low polyreactivity
14 | QVQLVESGGGLVQAGGSLRLSCAASGNTFVYYAMGWYRQAPGKERELVAGISRRSGSTYYADSVKGRFTISRDNAKNTVYLQMNSLKPEDTAVYYCAIGRTYLDAEDYWGQGSQVTVSS | low polyreactivity
15 | QVQLVESGGGLVQAGGSLRLSCAASGNTFWFYRMGWYRQAPGKERELVAAITSGGSTDYADSVKGRFTISRDNAKNTVYLQMNSLKPEDTAVYYCAAEPVAYYGSSYGYWGQGTQVTVSS | low polyreactivity
16 | QVQLVESGGGLVQAGGSLRLSCAASGNTFWGNAMGWYRQAPGKERELVATISASAGSTYYADSVKGRFTISRDNAKNTVYLQMNSLKPDDTAVYYCAKTALRYLKHGRTKGDYWGQGTQVTLSS | low polyreactivity
17 | QVQLVESGGGLVQAGGSLRLSCAASGNTFYGYAMGWYRQAPGKERELVAAITKTGGSTYYADSVKGRFTISRDNAKNTVYLQMNSLKPEDTAVYYCNAARETRPRDYYWGQGTQVTVSS | low polyreactivity
